Measured values: publication PMC3367207 (Nucleic Acids Research, 2012)

Biological target: the molecule itself
Assay: FRET or BRET

B1: FokI restriction endonuclease (enzyme, UniProt P14870 1-579, looked up)
chain: MVSKIRTFGWVQNPGKFENLKRVVQVFDRNSKVHNEVKNIKIPTLVKESKIQKELVAIMNQHDLIYTYKELVGTGTSIRSEAPCDAIIQATIADQGNKKGYIDNWSSDGFLRWAHALGFIEYINKSDSFVITDVGLAYSKSADGSAIEKEILIEAISSYPPAIRILTLLEDGQHLTKFDLGKNLGFSGESGFTSLPEGILLDTLANAMPKDKGEIRNNWEGSSDKYARMIGGWLDKLGLVKQGKKEFIIPTLGKPDNKEFISHAFKITGEGLKVLRRAKGSTKFTRVPKRVYWEMLATNLTDKEYVRTRRALILEILIKAGSLKIEQIQDNLKKLGFDEVIETIENDIKGLINTGIFIEIKGRFYQLKDHILQFVIPNRGVTKQLVKSELEEKKSELRHKLKYVPHEYIELIEIARNSTQDRILEMKVMEFFMKVYGYRGKHLGGSRKPDGAIYTVGSPIDYGVIVDTKAYSGGYNLPIGQADEMQRYVEENQTRNKHINPNEWWKVYPSSVTEFKFLFVSGHFKGNYKAQLTRLNHITNCNGAVLSVEELLIGGEMIKAGTLTLEEVRRKFNNGEINF
- binding result: binds
